In the supplement of paper PMC7125110:
± gives the standard error. For some of these results: Variants at the floor of the assay were thinned out.

B1: glmS ribozyme (parent)
chain: AUAAAAGCGCCAGAACUACAGAAAUGUAGUUGACGAGGAGGAGGUUUAUCGAAUUUUCGGCGGAUGCCUCCAAA

Legend:
Details in all cases: with glucosamine-6-phosphate
[1] = variants of: B1; experiment: kcat; higher = faster cleavage; RNA array
Outline: (§1)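 Glucosamine-6-phosphate, from 40 μM to 10 mM in HEPES/KCl/Mg(OAc)2 buffer, was flowed over sequenced MiSeq chips carrying barcoded ribozyme variants transcribed in situ by E. coli RNA polymerase. A hybridised Cy3 probe tracked the variants at 37 °C as tiles were imaged over ~14 h. kobs, kcat and KM were obtained by fitting normalised per-tile medians to exponential decays and then applying weighted Michaelis–Menten fits across concentrations.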

[2] = variants of: B1; experiment: KM; higher = weaker cofactor use; RNA array
Outline: as §1

[3] = variants of: B1; experiment: self-cleavage kobs at 40 uM GlcN6P; higher = faster cleavage; RNA array
Outline: as §1

[4] = variants of: B1; experiment: self-cleavage kobs at 160 uM GlcN6P; higher = faster cleavage; RNA array
Outline: as §1

[5] = variants of: B1; experiment: self-cleavage kobs at 640 uM GlcN6P; higher = faster cleavage; RNA array
Outline: as §1

[6] = variants of: B1; experiment: self-cleavage kobs at 2500 uM GlcN6P; higher = faster cleavage; RNA array
Outline: as §1

[7] = variants of: B1; experiment: self-cleavage kobs at 10000 uM GlcN6P; higher = faster cleavage; RNA array
Outline: as §1

A15G C16U
kcat [1]: 0.00689 ± 0.0016 s⁻¹ | KM [2]: 876 ± 320 µM | self-cleavage kobs at 40 uM GlcN6P [3]: 0.000403 ± 5.8e-05 s⁻¹ | self-cleavage kobs at 160 uM GlcN6P [4]: 0.000875 ± 0.00017 s⁻¹ | self-cleavage kobs at 640 uM GlcN6P [5]: 0.00277 ± 0.00047 s⁻¹ | self-cleavage kobs at 2500 uM GlcN6P [6]: 0.00432 ± 0.00071 s⁻¹ | self-cleavage kobs at 10000 uM GlcN6P [7]: 0.00798 ± 0.0011 s⁻¹

A15G G43A
kcat [1]: 8.91e-05 ± 1.1e-05 s⁻¹ | KM [2]: 2300 ± 940 µM | self-cleavage kobs at 40 uM GlcN6P [3]: < 1e-05 s⁻¹ | self-cleavage kobs at 2500 uM GlcN6P [6]: 4.89e-05 ± 1.5e-05 s⁻¹ | self-cleavage kobs at 10000 uM GlcN6P [7]: 7.17e-05 ± 1.4e-05 s⁻¹

A15G G43U
kcat [1]: 4.47e-05 ± 6.5e-06 s⁻¹ | self-cleavage kobs at 160 uM GlcN6P [4]: < 1e-05 s⁻¹ | self-cleavage kobs at 2500 uM GlcN6P [6]: 4.65e-05 ± 9.7e-06 s⁻¹ | self-cleavage kobs at 10000 uM GlcN6P [7]: 4e-05 ± 5.6e-06 s⁻¹

A15G A42U
kcat [1]: 0.000248 ± 4.1e-05 s⁻¹ | KM [2]: 1410 ± 570 µM | self-cleavage kobs at 160 uM GlcN6P [4]: 2.77e-05 ± 1.4e-05 s⁻¹ | self-cleavage kobs at 640 uM GlcN6P [5]: 6.62e-05 ± 1.7e-05 s⁻¹ | self-cleavage kobs at 2500 uM GlcN6P [6]: 0.000216 ± 3.8e-05 s⁻¹ | self-cleavage kobs at 10000 uM GlcN6P [7]: 0.000203 ± 3e-05 s⁻¹

A14U U49G A53U U69G
kcat [1]: 6.87e-05 ± 2.3e-05 s⁻¹ | self-cleavage kobs at 160 uM GlcN6P [4]: 8.99e-05 ± 3.4e-05 s⁻¹ | self-cleavage kobs at 2500 uM GlcN6P [6]: 7.58e-05 ± 2.1e-05 s⁻¹

A15C C71G
kcat [1]: 0.000307 ± 5.8e-05 s⁻¹ | KM [2]: 1010 ± 390 µM | self-cleavage kobs at 160 uM GlcN6P [4]: 4.96e-05 ± 1.3e-05 s⁻¹ | self-cleavage kobs at 640 uM GlcN6P [5]: 0.00011 ± 1.2e-05 s⁻¹ | self-cleavage kobs at 2500 uM GlcN6P [6]: 0.000299 ± 3.9e-05 s⁻¹ | self-cleavage kobs at 10000 uM GlcN6P [7]: 0.00025 ± 3.6e-05 s⁻¹

A14U U57C
kcat [1]: 7.65e-05 ± 1.4e-05 s⁻¹ | self-cleavage kobs at 2500 uM GlcN6P [6]: 5.75e-05 ± 1.1e-05 s⁻¹ | self-cleavage kobs at 10000 uM GlcN6P [7]: 6.38e-05 ± 1.2e-05 s⁻¹

A14U U57G
kcat [1]: 2.1e-05 ± 4e-06 s⁻¹ | self-cleavage kobs at 40 uM GlcN6P [3]: < 1e-05 s⁻¹

A15G G66C
kcat [1]: 0.000786 ± 0.00011 s⁻¹ | KM [2]: 833 ± 220 µM | self-cleavage kobs at 40 uM GlcN6P [3]: 3.37e-05 ± 1.1e-05 s⁻¹ | self-cleavage kobs at 160 uM GlcN6P [4]: 0.000115 ± 2.5e-05 s⁻¹ | self-cleavage kobs at 640 uM GlcN6P [5]: 0.000368 ± 6e-05 s⁻¹ | self-cleavage kobs at 2500 uM GlcN6P [6]: 0.000793 ± 0.00014 s⁻¹ | self-cleavage kobs at 10000 uM GlcN6P [7]: 0.000649 ± 9.7e-05 s⁻¹

A15G G66U
kcat [1]: 0.00552 ± 0.0016 s⁻¹ | KM [2]: 5370 ± 2200 µM | self-cleavage kobs at 40 uM GlcN6P [3]: 6.81e-05 ± 1.4e-05 s⁻¹ | self-cleavage kobs at 160 uM GlcN6P [4]: 0.000169 ± 3.6e-05 s⁻¹ | self-cleavage kobs at 640 uM GlcN6P [5]: 0.000492 ± 9.7e-05 s⁻¹ | self-cleavage kobs at 2500 uM GlcN6P [6]: 0.00161 ± 0.00029 s⁻¹ | self-cleavage kobs at 10000 uM GlcN6P [7]: 0.00374 ± 0.00049 s⁻¹

A15C U55C
kcat [1]: 0.00633 ± 0.0012 s⁻¹ | KM [2]: 2200 ± 580 µM | self-cleavage kobs at 40 uM GlcN6P [3]: 0.000138 ± 2e-05 s⁻¹ | self-cleavage kobs at 160 uM GlcN6P [4]: 0.000383 ± 7.4e-05 s⁻¹ | self-cleavage kobs at 640 uM GlcN6P [5]: 0.00121 ± 0.00034 s⁻¹ | self-cleavage kobs at 2500 uM GlcN6P [6]: 0.00302 ± 0.00052 s⁻¹ | self-cleavage kobs at 10000 uM GlcN6P [7]: 0.00573 ± 0.00087 s⁻¹

A14U U46G
kcat [1]: 0.0012 ± 0.00012 s⁻¹ | KM [2]: 2150 ± 380 µM | self-cleavage kobs at 40 uM GlcN6P [3]: 1.98e-05 ± 6.9e-06 s⁻¹ | self-cleavage kobs at 160 uM GlcN6P [4]: 9.07e-05 ± 2.1e-05 s⁻¹ | self-cleavage kobs at 640 uM GlcN6P [5]: 0.000293 ± 4.6e-05 s⁻¹ | self-cleavage kobs at 2500 uM GlcN6P [6]: 0.000548 ± 0.0001 s⁻¹ | self-cleavage kobs at 10000 uM GlcN6P [7]: 0.00104 ± 0.00012 s⁻¹

A15G G59U
kcat [1]: 0.000115 ± 2.5e-05 s⁻¹ | self-cleavage kobs at 640 uM GlcN6P [5]: 2.79e-05 ± 1.3e-05 s⁻¹ | self-cleavage kobs at 2500 uM GlcN6P [6]: 4.46e-05 ± 1.4e-05 s⁻¹ | self-cleavage kobs at 10000 uM GlcN6P [7]: 9.05e-05 ± 1.6e-05 s⁻¹

A15C U30C A52G G63C
kcat [1]: < 1e-05 s⁻¹

A15G G37U
kcat [1]: 1.02e-05 ± 7.1e-07 s⁻¹ | KM [2]: 623 ± 300 µM | self-cleavage kobs at 40 uM GlcN6P [3]: < 1e-05 s⁻¹

A15C U47A
kcat [1]: 0.00412 ± 0.0012 s⁻¹ | KM [2]: 2080 ± 870 µM | self-cleavage kobs at 40 uM GlcN6P [3]: 0.000116 ± 1.4e-05 s⁻¹ | self-cleavage kobs at 160 uM GlcN6P [4]: 0.000266 ± 5.3e-05 s⁻¹ | self-cleavage kobs at 640 uM GlcN6P [5]: 0.000773 ± 0.00011 s⁻¹ | self-cleavage kobs at 2500 uM GlcN6P [6]: 0.00226 ± 0.00034 s⁻¹ | self-cleavage kobs at 10000 uM GlcN6P [7]: 0.00367 ± 0.00044 s⁻¹
